# Patent US20130243767A1
# Ends that are not written are not given here.
# B1: aCD32a peptide published by Berntzen et al, …-biotin (peptide)
# peptide: ADGAWAWVWLTETAVGAAK-biotin
# Target: CD32 (FcγRII) on human plasmacytoid dendritic cells (human) (UniProt P12318)
# Test: cell-based or functional assay
# CD32 (FcγRII) on human plasmacytoid dendritic cells (human), sequence (P12318 34-317): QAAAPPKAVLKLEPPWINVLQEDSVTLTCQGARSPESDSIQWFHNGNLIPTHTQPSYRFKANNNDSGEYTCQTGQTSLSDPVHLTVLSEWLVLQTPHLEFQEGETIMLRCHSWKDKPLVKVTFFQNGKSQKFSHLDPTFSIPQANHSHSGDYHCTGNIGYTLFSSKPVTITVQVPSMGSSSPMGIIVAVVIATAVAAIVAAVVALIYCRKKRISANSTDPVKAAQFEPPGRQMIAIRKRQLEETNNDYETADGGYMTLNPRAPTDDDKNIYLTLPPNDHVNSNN
binder,measurement,value
B1,IL-6 production of pDCS in PBMC after stimulation with CPG-C,75 times
same,TNFα induction in PBMC after stimulation with CPG-C,3 times
